One block for each substance: values may come before it.
Tests used:
[1] = biological target: Recombinant Human DLL4 (R&D Systems Cat#1506-D4/CF) (human) (UniProt Q9NR61); assay: MSD ECL multi-spot plate; Fab […]; blank spot 149
[2] = biological target: rHuman EGF R/Fc Chimera, CF (R&D Systems Cat#344-ER) (human) (UniProt P00533); assay: MSD ECL multi-spot plate; Fab […]; blank spot 149
[3] = biological target: rHuman Notch-1/Fc Chimera, CF (R&D Systems Cat#3647-TK) (human) (UniProt P46531); assay: MSD ECL multi-spot plate; Fab […]; blank spot 149
[4] = biological target: Recombinant Human DLL4 (R&D Systems Cat#1506-D4/CF) (human) (UniProt Q9NR61); assay: MSD ECL multi-spot plate; Fab 1570 nM; blank spot 866
[5] = biological target: rHuman EGF R/Fc Chimera, CF (R&D Systems Cat#344-ER) (human) (UniProt P00533); assay: as above
[6] = biological target: rHuman Notch-1/Fc Chimera, CF (R&D Systems Cat#3647-TK) (human) (UniProt P46531); assay: as above
[7] = biological target: Recombinant Human DLL4 (R&D Systems Cat#1506-D4/CF) (human) (UniProt Q9NR61); assay: MSD ECL multi-spot plate; Fab 98.1 nM; blank spot 210
[8] = biological target: rHuman EGF R/Fc Chimera, CF (R&D Systems Cat#344-ER) (human) (UniProt P00533); assay: as above
[9] = biological target: rHuman Notch-1/Fc Chimera, CF (R&D Systems Cat#3647-TK) (human) (UniProt P46531); assay: as above
[10] = biological target: Recombinant Human DLL4 (R&D Systems Cat#1506-D4/CF) (human) (UniProt Q9NR61); assay: MSD ECL multi-spot plate; Fab 392.5 nM; blank spot 338
[11] = biological target: rHuman EGF R/Fc Chimera, CF (R&D Systems Cat#344-ER) (human) (UniProt P00533); assay: as above
[12] = biological target: rHuman Notch-1/Fc Chimera, CF (R&D Systems Cat#3647-TK) (human) (UniProt P46531); assay: as above
[13] = biological target: rHuman CD44/Fc Chimera, CF (R&D Systems Cat#3660-CD) (human) (UniProt P16070); assay: ECL (MSD multi-spot), antigen spotted on plate; Fab […]; blank 428
[14] = biological target: rHuman ErbB2/Fc Chimera, CF (R&D Systems Cat#1129-ER) (human) (UniProt P04626); assay: as above
[15] = biological target: rHuman Erythropoietin R/Fc Chimera, CF (R&D Systems Cat#963-ER) (human) (UniProt P19235); assay: as above
[16] = biological target: rHuman Notch-1/Fc Chimera, CF (R&D Systems Cat#3647-TK) (human) (UniProt P46531); assay: as above
[17] = biological target: rHuman P-Cadherin/Fc Chimera, CF (R&D Systems Cat#861-PC) (human) (UniProt P22223); assay: as above
[18] = biological target: rHuman CD44/Fc Chimera, CF (R&D Systems Cat#3660-CD) (human) (UniProt P16070); assay: ECL (MSD multi-spot), antigen spotted on plate; Fab 8 nM; blank 1188
[19] = biological target: rHuman ErbB2/Fc Chimera, CF (R&D Systems Cat#1129-ER) (human) (UniProt P04626); assay: as above
[20] = biological target: rHuman Erythropoietin R/Fc Chimera, CF (R&D Systems Cat#963-ER) (human) (UniProt P19235); assay: as above
[21] = biological target: rHuman Notch-1/Fc Chimera, CF (R&D Systems Cat#3647-TK) (human) (UniProt P46531); assay: as above
[22] = biological target: rHuman P-Cadherin/Fc Chimera, CF (R&D Systems Cat#861-PC) (human) (UniProt P22223); assay: as above
[23] = biological target: rHuman CD44/Fc Chimera, CF (R&D Systems Cat#3660-CD) (human) (UniProt P16070); assay: ECL (MSD multi-spot), antigen spotted on plate; Fab 1.6 nM; blank 648
[24] = biological target: rHuman ErbB2/Fc Chimera, CF (R&D Systems Cat#1129-ER) (human) (UniProt P04626); assay: as above
[25] = biological target: rHuman Erythropoietin R/Fc Chimera, CF (R&D Systems Cat#963-ER) (human) (UniProt P19235); assay: as above
[26] = biological target: rHuman Notch-1/Fc Chimera, CF (R&D Systems Cat#3647-TK) (human) (UniProt P46531); assay: as above
[27] = biological target: rHuman P-Cadherin/Fc Chimera, CF (R&D Systems Cat#861-PC) (human) (UniProt P22223); assay: as above
[28] = biological target: rHuman CD44/Fc Chimera, CF (R&D Systems Cat#3660-CD) (human) (UniProt P16070); assay: ECL (MSD multi-spot), antigen spotted on plate; Fab 40 nM; blank 1229
[29] = biological target: rHuman ErbB2/Fc Chimera, CF (R&D Systems Cat#1129-ER) (human) (UniProt P04626); assay: as above
[30] = biological target: rHuman Erythropoietin R/Fc Chimera, CF (R&D Systems Cat#963-ER) (human) (UniProt P19235); assay: as above
[31] = biological target: rHuman Notch-1/Fc Chimera, CF (R&D Systems Cat#3647-TK) (human) (UniProt P46531); assay: as above
[32] = biological target: rHuman P-Cadherin/Fc Chimera, CF (R&D Systems Cat#861-PC) (human) (UniProt P22223); assay: as above
[33] = biological target: rHuman CD44/Fc Chimera, CF (R&D Systems Cat#3660-CD) (human) (UniProt P16070); assay: ECL (MSD multi-spot), antigen spotted on plate; Fab 200 nM; blank 1659
[34] = biological target: rHuman ErbB2/Fc Chimera, CF (R&D Systems Cat#1129-ER) (human) (UniProt P04626); assay: as above
[35] = biological target: rHuman Erythropoietin R/Fc Chimera, CF (R&D Systems Cat#963-ER) (human) (UniProt P19235); assay: as above
[36] = biological target: rHuman Notch-1/Fc Chimera, CF (R&D Systems Cat#3647-TK) (human) (UniProt P46531); assay: as above
[37] = biological target: rHuman P-Cadherin/Fc Chimera, CF (R&D Systems Cat#861-PC) (human) (UniProt P22223); assay: as above
[38] = biological target: rHuman CD44/Fc Chimera, CF (R&D Systems Cat#3660-CD) (human) (UniProt P16070); assay: ECL (MSD multi-spot), antigen spotted on plate; Fab 1000 nM; blank 2142
[39] = biological target: rHuman ErbB2/Fc Chimera, CF (R&D Systems Cat#1129-ER) (human) (UniProt P04626); assay: as above
[40] = biological target: rHuman Erythropoietin R/Fc Chimera, CF (R&D Systems Cat#963-ER) (human) (UniProt P19235); assay: as above
[41] = biological target: rHuman Notch-1/Fc Chimera, CF (R&D Systems Cat#3647-TK) (human) (UniProt P46531); assay: as above
[42] = biological target: rHuman P-Cadherin/Fc Chimera, CF (R&D Systems Cat#861-PC) (human) (UniProt P22223); assay: as above
[43] = biological target: rHuman EGF R/Fc Chimera, CF (R&D Systems Cat#344-ER) (human) (UniProt P00533); assay: ECL (MSD multi-spot), Fab 14.5 nM; blank 117
[44] = biological target: rHuman IGF-1 sR (IGF-1 sR), CF (R&D Systems Cat#391-GR) (human) (UniProt P08069); assay: ECL (MSD multi-spot), Fab 14.5 nM; blank 117
[45] = biological target: rHuman P-Cadherin/Fc Chimera, CF (R&D Systems Cat#861-PC) (human) (UniProt P22223); assay: ECL (MSD multi-spot), Fab 14.5 nM; blank 117
[46] = biological target: rHuman EGF R/Fc Chimera, CF (R&D Systems Cat#344-ER) (human) (UniProt P00533); assay: ECL (MSD multi-spot), Fab 58.1 nM; blank 225
[47] = biological target: rHuman IGF-1 sR (IGF-1 sR), CF (R&D Systems Cat#391-GR) (human) (UniProt P08069); assay: ECL (MSD multi-spot), Fab 58.1 nM; blank 225
[48] = biological target: rHuman P-Cadherin/Fc Chimera, CF (R&D Systems Cat#861-PC) (human) (UniProt P22223); assay: ECL (MSD multi-spot), Fab 58.1 nM; blank 225
[49] = biological target: rHuman EGF R/Fc Chimera, CF (R&D Systems Cat#344-ER) (human) (UniProt P00533); assay: ECL (MSD multi-spot), Fab 930 nM; blank 1206
[50] = biological target: rHuman IGF-1 sR (IGF-1 sR), CF (R&D Systems Cat#391-GR) (human) (UniProt P08069); assay: ECL (MSD multi-spot), Fab 930 nM; blank 1206
[51] = biological target: rHuman P-Cadherin/Fc Chimera, CF (R&D Systems Cat#861-PC) (human) (UniProt P22223); assay: ECL (MSD multi-spot), Fab 930 nM; blank 1206
[52] = biological target: rHuman EGF R/Fc Chimera, CF (R&D Systems Cat#344-ER) (human) (UniProt P00533); assay: ECL (MSD multi-spot), Fab 232.5 nM; blank 460
[53] = biological target: rHuman IGF-1 sR (IGF-1 sR), CF (R&D Systems Cat#391-GR) (human) (UniProt P08069); assay: ECL (MSD multi-spot), Fab 232.5 nM; blank 460
[54] = biological target: rHuman P-Cadherin/Fc Chimera, CF (R&D Systems Cat#861-PC) (human) (UniProt P22223); assay: ECL (MSD multi-spot), Fab 232.5 nM; blank 460

Chain of rHuman Erythropoietin R/Fc Chimera, CF (R&D Systems Cat#963-ER) (human) (P19235 25-250, change not shown): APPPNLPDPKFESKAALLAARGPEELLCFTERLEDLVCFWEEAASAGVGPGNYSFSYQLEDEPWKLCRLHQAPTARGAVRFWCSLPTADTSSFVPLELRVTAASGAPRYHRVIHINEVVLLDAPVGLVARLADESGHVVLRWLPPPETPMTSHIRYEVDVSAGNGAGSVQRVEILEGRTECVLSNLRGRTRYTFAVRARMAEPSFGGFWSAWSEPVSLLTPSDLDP

ECL signal [1]: 339 ECL signal
ECL signal [2]: 317 ECL signal
ECL signal [3]: 434 ECL signal
ECL signal [4]: 2700 ECL signal
ECL signal [5]: 2480 ECL signal
ECL signal [6]: 1640 ECL signal
ECL signal [7]: 402 ECL signal
ECL signal [8]: 4390 ECL signal
ECL signal [9]: 313 ECL signal
ECL signal [10]: 735 ECL signal
ECL signal [11]: 744 ECL signal
ECL signal [12]: 749 ECL signal
Substance: Fab VH1-46_IGHD3-10*01_IGHJ4*01 & O1_IGKJ1*01

ECL signal [13]: 684
ECL signal [14]: 766
ECL signal [15]: 739
ECL signal [16]: 739
ECL signal [17]: 649
ECL signal [18]: 1490
ECL signal [19]: 1900
ECL signal [20]: 1980
ECL signal [21]: 2200
ECL signal [22]: 1920
ECL signal [23]: 1020
ECL signal [24]: 1170
ECL signal [25]: 1120
ECL signal [26]: 1170
ECL signal [27]: 1140
ECL signal [28]: 2680
ECL signal [29]: 2230
ECL signal [30]: 3510
ECL signal [31]: 3480
ECL signal [32]: 2600
ECL signal [33]: 3190
ECL signal [34]: 4040
ECL signal [35]: 4000
ECL signal [36]: 5700
ECL signal [37]: 3990
ECL signal [38]: 4730
ECL signal [39]: 7420
ECL signal [40]: 8290
ECL signal [41]: 8060
ECL signal [42]: 5630
Substance: Fab VH1-46_IGHD6-6*01_IGHJ1*01_S104A & L6_IGKJ1*01

ECL signal [43]: 357 ECL signal
ECL signal [44]: 234 ECL signal
ECL signal [45]: 277 ECL signal
ECL signal [46]: 444 ECL signal
ECL signal [47]: 343 ECL signal
ECL signal [48]: 478 ECL signal
ECL signal [49]: 3110 ECL signal
ECL signal [50]: 1920 ECL signal
ECL signal [51]: 2440 ECL signal
ECL signal [52]: 803 ECL signal
ECL signal [53]: 569 ECL signal
ECL signal [54]: 655 ECL signal
Substance: Fab VH1-46_IGHD6-13*01_IGHJ4*01 & O1_IGKJ1*01
